Laboratory results reported in US20210221911A1 (NATIONAL CANCER CENTER JAPAN, published 2021).

Experiments:
[1] = biological target: T1, recombinant human tissue factor (rhTF), residues 33 to 251 of hTF with C-terminal His6 tag (human, UniProt P13726 33-251); assay: SPR, ratio of koff values, reference 1849ADC
T1 construct: range 33-251; also called rhTF antigen
Method: (§1) SPR measurement was performed by using BiaCore T200 (GE Healthcare). The recombinant human tissue factor antigen (rhTF antigen) was subjected to buffer exchange to 10 mM sodium acetate solution (pH 5.0) and the final protein concentration was adjusted to 2 to 10 μg/mL. Subsequently, contact time was set to 30 seconds and the antigen was immobilized on a CM5 sensor chip (GE Healthcare) according to a basic protocol by using amine coupling. Then, 5 dilution series of the antibody solution were prepared by diluting each ADC solution in DPBS so that the final concentrations thereof became 320 nM, 160 nM, 80 nM, 40 nM, and 20 nM.

[2] = biological target: T1, recombinant human tissue factor (rhTF), …; assay: SPR, Biacore T200, rhTF on CM5 chip, single-cycle kinetics, bivalent analyte model
Method: as §1

[3] = biological target: recombinant human tissue factor (rhTF, SEQ ID NO: 13) (human, UniProt P13726 33-251); assay: ELISA screen of hybridomas on solid-phase rhTF
Excerpt: (§2) Recombinant human tissue factor micellized using FCA adjuvant (rhTF, SEQ ID NO: 13) was intraperitoneally administered to Wister rats. After several immunizations, rat antisera were examined by ELISA using a solid phase having rhTFs thereon. A spleen was excised from a rat individual that had shown an increased antibody titer and splenocytes were obtained therefrom. The splenocytes and p3X63 mouse myeloma cells were fused by a PEG technique and cultivated in a HAT culture medium to select hybridoma cells. The hybridoma cells were screened to select those that reacted positively to rhTFs in ELISA and also reacted positively to cells expressing human tissue factor strongly such as an MCF7 cell in flow cytometry analysis. The selected hybridoma cells were cloned by limiting dilution to establish hybridoma cell clones that produced anti-tissue factor antibodies.

[4] = biological target: T2, human tissue factor on cells expressing it strongly such as MCF7 cells (human, UniProt P13726 33-295); assay: flow cytometry screen of hybridomas on cells expressing TF
T2 construct: whole, on cells; also called TF
Excerpt: as §2

koff relative to 1849ADC [1]	Kd [2]	koff [2]	kon [2]	binding result [3]	binding result [4]	Binder
39.3 times	35 nM	0.000825 s⁻¹	26100 M⁻¹ s⁻¹			1084ADC (ADC composed of the monoclonal antibody produced by clone No. 1084 and monomethyl auristatin E) (antibody, V domains shown, MMAE joined through a maleimide-PEG12-Val-Cit-PABA linker to sulfhydryl groups of the reduced antibody; sites and number not stated, Whole rat monoclonal antibody from a rat-mouse hybridoma, conjugated to MMAE) VH: QVQLKESGPGLVQPSQTLSLTCIVSGFSLTNYNVHWVRQPAGAGLEWMGVIWTDGKTDYNSTLQSRLSISRDTSKSQVFLKMNSLQAEDIATYYCARDWDTGFDYWGQGVMVTVSS VL: DIKMTQSPSSLSASLGERVTISCRASENINNILAWYQKKEDGSVKLLIHYTSNLQSGVPSRFSGSGSGKDYSLTISGLESEDIATYYCQQAYTPYAFGAGTKLELK
				binds	binds	monoclonal antibody produced by clone No. 1084 (antibody, V domains shown) VH: QVQLKESGPGLVQPSQTLSLTCIVSGFSLTNYNVHWVRQPAGAGLEWMGVIWTDGKTDYNSTLQSRLSISRDTSKSQVFLKMNSLQAEDIATYYCARDWDTGFDYWGQGVMVTVSS VL: DIKMTQSPSSLSASLGERVTISCRASENINNILAWYQKKEDGSVKLLIHYTSNLQSGVPSRFSGSGSGKDYSLTISGLESEDIATYYCQQAYTPYAFGAGTKLELK
